{
  "source": "paper doi:10.1101/2024.08.23.608024",
  "key": {"[1]": {"molecular_target": "T1, GbpC (glucan-binding protein C), extracellular fragment (Streptococcus mutans, UniProt Q8DTF1 111-522)", "T1 sequence": "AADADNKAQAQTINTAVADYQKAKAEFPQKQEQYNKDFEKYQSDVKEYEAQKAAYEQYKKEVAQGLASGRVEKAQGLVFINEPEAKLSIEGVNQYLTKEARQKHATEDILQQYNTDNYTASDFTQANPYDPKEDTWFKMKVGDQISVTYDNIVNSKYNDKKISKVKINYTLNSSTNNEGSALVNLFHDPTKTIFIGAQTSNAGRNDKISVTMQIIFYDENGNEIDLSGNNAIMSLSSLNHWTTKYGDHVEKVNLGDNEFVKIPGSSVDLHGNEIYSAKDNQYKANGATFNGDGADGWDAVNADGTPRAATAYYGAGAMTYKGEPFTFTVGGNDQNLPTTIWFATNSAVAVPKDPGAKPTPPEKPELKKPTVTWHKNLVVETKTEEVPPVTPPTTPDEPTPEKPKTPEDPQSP", "assay": "BLI"}, "[2]": {"molecular_target": "T1, GbpC (glucan-binding protein C), …", "assay": "MST"}, "[3]": {"molecular_target": "T1, GbpC (glucan-binding protein C), …", "assay": "AlphaScreen"}},
  "data": [
    {"binder": "A96 (flanked) (ssDNA) DNA: AGATACCAATACGCTGCCCCGCCGGTCCCGAGCTACAACACTTTACGCCCCCCTCCCCGCCACTGGTAACGACATC", "values": [
      {"measurement": "Kd", "setting": "[1]", "value": 0.4, "unit": "µM"},
      {"measurement": "Kd", "setting": "[2]", "value": 8.5, "unit": "µM"}
    ]},
    {"binder": "TAGCCCCTACCCTGTTGCTCCCCCTCGCCCCTCTCACCCC (ssDNA)", "note": "[A39 truncated]", "values": [
      {"measurement": "Kd", "setting": "[2]", "value": 19.6, "unit": "µM"}
    ]},
    {"binder": "CCGCCGGTCCCGAGCTACAACACTTTACGCCCCCCTCCC (ssDNA)", "note": "[A96 truncated]", "values": [
      {"measurement": "Kd", "setting": "[2]", "value": 66.9, "unit": "µM"}
    ]},
    {"binder": "A65 (ssDNA) DNA: AGATACCAATACGCTGCCTTTCCAATTACGCCATGCATCACCCCTAAAATCTGAATACGCCACTGGTAACGACATC", "values": [
      {"measurement": "binding result", "setting": "[3]", "value": "binds"}
    ]},
    {"binder": "A30 (ssDNA) DNA: AGATACCAATACGCTGCCTTCTTGAAAAAGGGTAGCGCAGGCCGCTAATGACATAACTGCCACTGGTAACGACATC", "values": [
      {"measurement": "binding result", "setting": "[3]", "value": "binds"}
    ]},
    {"binder": "A39 (flanked) (ssDNA) DNA: AGATACCAATACGCTGCCTAGCCCCTACCCTGTTGCTCCCCCTCGCCCCTCTCACCCCGCCACTGGTAACGACATC", "values": [
      {"measurement": "Kd", "setting": "[1]", "value": 5.7, "unit": "µM"}
    ]}
  ]
}
